PMC6141708

Biological target: recombinant GST-RhoA (UniProt P61586)
Assay: pull-down; recombinant GST-RhoA on beads; lysates of 293T cells transfected with WT or S9A Fam65b-GFP; 2 h at 4°C; pull-down buffer; anti-GFP immunoblot, band intensities in the pull-down normalised to the total lysate, four independent experiments

UniProt P61586, sequence (P61586 whole entry): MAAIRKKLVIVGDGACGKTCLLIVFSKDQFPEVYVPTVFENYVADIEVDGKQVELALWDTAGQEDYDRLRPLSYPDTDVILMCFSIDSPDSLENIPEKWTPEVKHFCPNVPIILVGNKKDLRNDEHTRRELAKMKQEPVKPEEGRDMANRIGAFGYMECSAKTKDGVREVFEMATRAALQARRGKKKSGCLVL

fold of Fam65b bound to RhoA against WT Fam65b-GFP: 1.8 fold
Substance: Fam65b(S9A)-GFP (isoform 2) (natural protein)
